From patent US20070020327A1 come the findings set out here.

To fix the notation:
B1: PAP 84 peptide … (peptide)
peptide: YIRKRYRKFL
modifications: not checked
B2: PSA 125 … (peptide)
peptide: PAELTDAVKV
modifications: not checked
B3: PSM 357 … (peptide)
peptide: NVIGTLRGAV
modifications: not checked
B4: PSA 15 PLILSRIV (peptide)
peptide: PLILSRIV
modifications: not checked
B5: Kallikrein 216 … (peptide)
peptide: PLVCNGVLQGI
modifications: not checked
B6: PAP 49 … (peptide)
peptide: PIDTFPTDPI
modifications: not checked
B7: PAP 147 … (peptide)
peptide: PLSEDQLLYL
modifications: not checked
B8: PSM 296 … (peptide)
peptide: PIGYYDAQKL
modifications: not checked
B9: PSM 568 … (peptide)
peptide: PMFKYHLTVA
modifications: not checked
B10: PSM 231 … (peptide)
peptide: PADYFAPGV
modifications: not checked
B11: PSA 212 … (peptide)
peptide: PLVCNGVLQGI
modifications: not checked
B12: PSA 212 PLVGNGVL (peptide)
peptide: PLVCNGVL
modifications: not checked
B13: PSM 468 … (peptide)
peptide: PLMYSLVHNL
modifications: not checked
B14: PSM 550 … (peptide)
peptide: PLYHSVYET
modifications: not checked
B15: PAP 352 … (peptide)
peptide: PLERFAELV
modifications: not checked
B16: PSM 179 peptide … (peptide)
peptide: YARTEDFFKL
modifications: not checked
B17: Kallikrein 216 PLVGNGVL (peptide)
peptide: PLVCNGVL
modifications: not checked
B18: PSA 95 PLYDMSLL (peptide)
peptide: PLYDMSLL
modifications: not checked
B19: PAP 140 … (peptide)
peptide: PIPVHTVPL
modifications: not checked
B20: peptide 1419.13 (PSA.116.V11 / HuK2.120.V11) (peptide)
peptide: DLMLLRLSEPV
modifications: not checked
B21: … (Kallikrein, position 191, 11 amino acids) (peptide)
peptide: KVTEFMLCAGL
modifications: not checked
B22: … (PAP, position 31, 10 amino acids) (peptide)
peptide: LAKELKFVTL
modifications: not checked
B23: PSM peptide … (position 107, 9 amino acids) (peptide)
peptide: SVELAHYDV
modifications: not checked
B24: … (PSA, position 119, 10 amino acids) (peptide)
peptide: LLRLSEPAEL
modifications: not checked
B25: … (PSA, position 241, 9 amino acids) (peptide)
peptide: KVVHYRKWI
modifications: not checked
B26: … (PAP, position 8, 9 amino acids) (peptide)
peptide: LARAASLSL
modifications: not checked
B27: PSA peptide … (position 67, 10 amino acids) (peptide)
peptide: SVILLGRHSL
modifications: not checked
B28: … (Kallikrein, position 245, 9 amino acids) (peptide)
peptide: KVVHYRKWI
modifications: not checked
B29: PSM peptide … (position 129, 10 amino acids) (peptide)
peptide: SIINEDGNEI
modifications: not checked
B30: PSM peptide … (position 338, 9 amino acids) (peptide)
peptide: STQKVKMHI
modifications: not checked
B31: … (PSM, position 305, 9 amino acids) (peptide)
peptide: LLEKMGGSA
modifications: not checked
B32: … (PSM, position 83, 10 amino acids) (peptide)
peptide: LAGTEQNFQL
modifications: not checked
B33: LLRLSEPA (Kallikrein, position 123, 8 amino acids) (peptide)
peptide: LLRLSEPA
modifications: not checked
B34: PAP peptide … (position 13, 9 amino acids) (peptide)
peptide: SLSLGFLFL
modifications: not checked
B35: … (PSA, position 187, 9 amino acids) (peptide)
peptide: KVTKFMLCA
modifications: not checked
B36: PSM peptide … (position 631, 10 amino acids) (peptide)
peptide: SLFSAVKNFT
modifications: not checked
B37: PSM peptide … (position 472, 10 amino acids) (peptide)
peptide: SLVHNLTKEL
modifications: not checked
B38: PSM peptide … (position 107, 10 amino acids) (peptide)
peptide: SVELAHYDVL
modifications: not checked
B39: … (PSM, position 219, 9 amino acids) (peptide)
peptide: LAGAKGVIL
modifications: not checked
B40: PSA peptide SLLKNRFL (position 100, 8 amino acids) (peptide)
peptide: SLLKNRFL
modifications: not checked
B41: LLRLSEPA (PSA, position 119, 8 amino acids) (peptide)
peptide: LLRLSEPA
modifications: not checked
B42: … (PSM, position 4, 10 amino acids) (peptide)
peptide: LLHETDSAVA
modifications: not checked
B43: PSA peptide SVTWIGAA (position 7, 8 amino acids) (peptide)
peptide: SVTWIGAA
modifications: not checked
B44: PSM peptide … (position 615, 10 amino acids) (peptide)
peptide: SMKHPQEMKT
modifications: not checked
B45: … (Kallikrein, position 192, 10 amino acids) (peptide)
peptide: VTEFMLCAGL
modifications: not checked
B46: … (PSA, position 55, 9 amino acids) (peptide)
peptide: WVLTAAHCI
modifications: not checked
B47: WIGAAPLI (PSA, position 10, 8 amino acids) (peptide)
peptide: WIGAAPLI
modifications: not checked
B48: PSA peptide … (position 12) (peptide)
peptide: GAAPLILSRI
modifications: not checked
B49: PSM peptide … (position 391) (peptide)
peptide: GAAVVHEIV
modifications: not checked
B50: VVFLTLSV (PSA, position 1, 8 amino acids) (peptide)
peptide: VVFLTLSV
modifications: not checked
B51: … (PSM, position 434, 9 amino acids) (peptide)
peptide: WAEENSRLL
modifications: not checked
B52: PSM peptide … (position 737) (peptide)
peptide: FTVQAAAETL
modifications: not checked
B53: … (PSA, position 8, 9 amino acids) (peptide)
peptide: VTWIGAAPL
modifications: not checked
B54: … (PSM, position 602, 10 amino acids) (peptide)
peptide: VVLRKYADKI
modifications: not checked
B55: … (PSA, position 10, 9 amino acids) (peptide)
peptide: WIGAAPLIL
modifications: not checked
B56: … (PSA, position 8, 10 amino acids) (peptide)
peptide: VTWIGAAPLI
modifications: not checked
B57: PSA peptide … (position 221) (peptide)
peptide: GITSWGSEPCA
modifications: not checked
B58: … (Kallikrein, position 47, 9 amino acids) (peptide)
peptide: WAHCGGVLV
modifications: not checked
B59: PSM peptide … (position 385) (peptide)
peptide: GIDPQSGAAV
modifications: not checked
B60: … (PAP, position 226, 10 amino acids) (peptide)
peptide: WATEDTMTKL
modifications: not checked
B61: PAP peptide … (position 204) (peptide)
peptide: GIWSKVYDPL
modifications: not checked
B62: … (PSA, position 1, 9 amino acids) (peptide)
peptide: VVFLTLSVT
modifications: not checked
B63: PSM peptide … (position 364) (peptide)
peptide: GAVEPDRYV
modifications: not checked
B64: PSM peptide … (position 364) (peptide)
peptide: GAVEPDRYVI
modifications: not checked
B65: WIKDTIVA (PSA, position 248, 8 amino acids) (peptide)
peptide: WIKDTIVA
modifications: not checked

One may read the IC50 as the midpoint of a concentration-inhibition curve.

In the first assay the target is HLA-A*0201 (human). Put plainly: competition with 125I-labelled standard peptide for purified HLA, gel filtration.
Conditions: not given
On the technique in general: Size exclusion chromatography separates by hydrodynamic size, large species first.
For B1, the binding affinity ratio (IC50 of the standard peptide / IC50 of the test peptide) is 0.0002.
Turning to B2, the binding affinity ratio (IC50 of standard peptide / IC50 of test peptide) came to 0.0002.
Still for that read-out and setting: for B3 the value was 0.0001.
Same read-out and setting: for B4 the value was 0.0001; for B5, 0.002; for B6, 0.0002.
On to B7, for which the binding affinity ratio (IC50 of standard peptide / IC50 of test peptide) turned out to be 0.0006.
Still for that read-out and setting: in the case of B8 it was 0.0001; in that of B9, 0.0005.
Same read-out and setting: for B10 the value was 0.0001; for B11, 0.002.
Consider B12, for which the binding affinity ratio (IC50 of standard peptide / IC50 of test peptide) is 0.0001.
For the molecule B13, the binding affinity ratio (IC50 of standard peptide / IC50 of test peptide) turned out to be 0.0008.
B14: the binding affinity ratio (IC50 of standard peptide / IC50 of test peptide) stood at 0.0002.
Regarding B15, the binding affinity ratio (IC50 of standard peptide / IC50 of test peptide) stood at 0.0001.
Consider B16, for which the binding affinity ratio (IC50 of the standard peptide / IC50 of the test peptide) stood at 0.0002.
Regarding B17, the binding affinity ratio (IC50 of standard peptide / IC50 of test peptide) came to 0.0001.
The same measure, in the same setting: for B18 the value was 0.0002; for B19, 0.0002.

Still in this assay, the particulars now being: remark: other sources report otherwise.
As for B20, the IC50 turned out to be 50 nM.

Still in this assay, the particulars now being: remark: other sources report otherwise; scale: ratio.
Take B21: the binding affinity ratio was 0.001.

The same assay, now with this note: scale: ratio.
With B22, the binding affinity ratio was 0.0002.
B23: the binding affinity ratio stood at 0.0001.
Same read-out and setting: for B24 the value was 0.0001.
The same measure, in the same setting: in the case of B25 it was 0.0001.
The same measure, in the same setting: for B26 the value was 0.0002.
As for B27, the binding affinity ratio came out at 0.0001.
Same read-out and setting: in the case of B28 it was 0.0001; in that of B29, 0.0001; in that of B30, 0.0001.
For B31, the binding affinity ratio is 0.0001.
On the same count and under the same terms, in the case of B32 it was 0.0001; in that of B33, 0.0001.
Same read-out and setting: in the case of B34 it was 0.02; in that of B35, 0.002; in that of B36, 0.001.
Still for that read-out and setting: in the case of B37 it was 0.0002; in that of B38, 0.0002; in that of B39, 0.0002.
For B40, the binding affinity ratio was 0.002.
On the same count and under the same terms, in the case of B41 it was 0.0001.
The same measure, in the same setting: in the case of B42 it was 0.0006.
Consider B43, for which the binding affinity ratio was 0.0001.
On the same count and under the same terms, for B44 the value was 0.0001.

Another assay addresses HLA-A*0201 (human). Put plainly: competition with 125I-labelled standard peptide 941.01 for purified HLA, gel filtration. Particulars: remark: other sources report otherwise; scale: ratio.
As for B45, the binding affinity ratio came to 0.0008.
On the same count and under the same terms, for B46 the value was 0.0008.

The assay is the same for the next values; noted with them: scale: ratio.
As to B47, the binding affinity ratio was 0.0005.
Take B48: the binding affinity ratio stood at 0.0005.
Same read-out and setting: in the case of B49 it was 0.0002; in that of B50, 0.0002.
Consider B51, for which the binding affinity ratio amounted to 0.0001.
In the case of B52, the binding affinity ratio worked out at 0.0001.
Same read-out and setting: for B53 the value was 0.011.
In the case of B54, the binding affinity ratio was 0.0001.
The same measure, in the same setting: for B55 the value was 0.0005; for B56, 0.0019; for B57, 0.0001.
Same read-out and setting: in the case of B58 it was -0.0001; in that of B59, 0.0002.
The same measure, in the same setting: in the case of B60 it was 0.0002; in that of B61, 0.0002; in that of B62, 0.0008.
B63: the binding affinity ratio was 0.0001.
The same measure, in the same setting: in the case of B64 it was 0.0002.
Still for that read-out and setting: for B65 the value was 0.0001.
